Data taken from US20260217833A1 (APTEVO RESEARCH AND DEVELOPMENT, published 2026).
Residue numbers refer to the chain shown, from its start. One block for each binder: values may come before it.

Target: T1, Human PD-L1 full-length (human, UniProt Q9NZQ7 19-290)
T1 construct: also called PDL01021; CHOK1SV/huPDL1
Assay: flow cytometry, CHOK1SV/human PD-L1 cells

T1 sequence (Q9NZQ7 19-290): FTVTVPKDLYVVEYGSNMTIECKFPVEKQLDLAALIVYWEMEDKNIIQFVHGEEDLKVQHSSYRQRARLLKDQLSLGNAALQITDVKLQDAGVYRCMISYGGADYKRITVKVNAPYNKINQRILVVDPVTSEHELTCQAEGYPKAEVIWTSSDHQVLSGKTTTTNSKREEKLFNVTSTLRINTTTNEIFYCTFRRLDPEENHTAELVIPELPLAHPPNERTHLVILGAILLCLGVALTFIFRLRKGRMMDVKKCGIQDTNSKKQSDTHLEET

binding result: binds
B1: CD4001066 (PDL_5F9 x hFc x CD40_1D5) (bispecific antibody)
chain: EVQLVESGGGLVKPGGSLRLSCAASGFTFSDYGMAWVRQAPGKGLEWVAFITSLAYIIYYADSVKGRFTISRDNAKNSLYLQMNSLRAEDTAVYYCARNYGSSPYYFDYWGQGTLVTVSSGGGGSGGGGSGGGGSGGGGSDIQMTQSPSSLSASVGDRVTITCRASQDINKFLSWYQQKPGKAPKLLIHYTSSLQPGVPSRFSGSGSGTDFTLTISSLQPEDFATYYCLQYDNLYTFGQGTKLEIKEPKSSDKTHTCPPCPAPPAAAPSVFLFPPKPKDTLMISRTPEVTCVVVDVSHEDPEVKFNWYVDGVEVHNAKTKPREEQYNSTYRVVSVLTVLHQDWLNGKEYKCAVSNKALPAPIEKTISKAKGQPREPQVYTLPPSRDELTKNQVSLTCLVKGFYPSDIAVEWESNGQPENNYKTTPPVLDSDGSFFLYSKLTVDKSRWQQGNVFSCSVMHEALHNHYTQKSLSLSPGGGGSPSDIVMSQSPSSLAVSVGEKVTMSCKSSQSLLFSVNQKNYLAWYQQKPGQSPKLLIYWASTRESGVPDRFTGSGSGTDFTLTIGSVKAEDLAVYYCQHYYSYPWTFGGGTKLEIKGGGGSGGGGSGGGGSGGGGSQVQLQQSGAELMNPGASVRISCKATGYTFSTSWIEWIKQRPGHGLEWIGEILPGSGSTNYNEKFKGKATFTADTSSNTAYMQLSSLTFEDSAVYYCARGDDGSYVRWYFDVWGAGTTVTVSS
notes: ADAPTIR format, anti-PD-L1 scFv on N-terminus, anti-CD40 scFv on C-terminus; also called CD4001066 (1D5)

binding result: binds
B2: CD4001073 (bispecific antibody)
CD40_2H7 x Fc-Knob: DIVMTQSHKFMSTSVGDRVSITCKASQDVNTAVAWYQQKPGQSPKLLIYSASYRYTGVPDRFTGSGSGTDFTFTISSVQAEDLAVYYCQQHYSTPWTFGGGTKLEIKGGGGSGGGGSGGGGSGGGGSQVQLQQSGAELAKPGASVKMSCKASGYAFTTYWMHWVKQRPGQGLEWIGYINPTTGYTDYNQKFKDKATLTADKSSSTAYMQLSSLTSEDSAVYYCARWGLPPFAYWGQGTLVTVSAEPKSSDKTHTCPPCPAPPAAAPSVFLFPPKPKDTLMISRTPEVTCVVVDVSHEDPEVKFNWYVDGVEVHNAKTKPREEQYNSTYRVVSVLTVLHQDWLNGKEYKCAVSNKALPAPIEKTISKAKGQPREPQVYTLPPSRDELTKNQVSLWCLVKGFYPSDIAVEWESNGQPENNYKTTPPVLDSDGSFFLYSKLTVDKSRWQQGNVFSCSVMHEALHNHYTQKSLSLSPG
CD40_2H7 x Fc-Hole x PDL_5F9: DIVMTQSHKFMSTSVGDRVSITCKASQDVNTAVAWYQQKPGQSPKLLIYSASYRYTGVPDRFTGSGSGTDFTFTISSVQAEDLAVYYCQQHYSTPWTFGGGTKLEIKGGGGSGGGGSGGGGSGGGGSQVQLQQSGAELAKPGASVKMSCKASGYAFTTYWMHWVKQRPGQGLEWIGYINPTTGYTDYNQKFKDKATLTADKSSSTAYMQLSSLTSEDSAVYYCARWGLPPFAYWGQGTLVTVSAEPKSSDKTHTCPPCPAPPAAAPSVFLFPPKPKDTLMISRTPEVTCVVVDVSHEDPEVKFNWYVDGVEVHNAKTKPREEQYNSTYRVVSVLTVLHQDWLNGKEYKCAVSNKALPAPIEKTISKAKGQPREPQVYTLPPSRDELTKNQVSLSCAVKGFYPSDIAVEWESNGQPENNYKTTPPVLDSDGSFFLVSKLTVDKSRWQQGNVFSCSVMHEALHNRFTQKSLSLSPGGGGSPSEVQLVESGGGLVKPGGSLRLSCAASGFTFSDYGMAWVRQAPGKGLEWVAFITSLAYIIYYADSVKGRFTISRDNAKNSLYLQMNSLRAEDTAVYYCARNYGSSPYYFDYWGQGTLVTVSSGGGGSGGGGSGGGGSGGGGSDIQMTQSPSSLSASVGDRVTITCRASQDINKFLSWYQQKPGKAPKLLIHYTSSLQPGVPSRFSGSGSGTDFTLTISSLQPEDFATYYCLQYDNLYTFGQGTKLEIK

binding result: binds
B3: CD4001067 (bispecific antibody)
PDL_5F9 x Fc-Knob: EVQLVESGGGLVKPGGSLRLSCAASGFTFSDYGMAWVRQAPGKGLEWVAFITSLAYIIYYADSVKGRFTISRDNAKNSLYLQMNSLRAEDTAVYYCARNYGSSPYYFDYWGQGTLVTVSSGGGGSGGGGSGGGGSGGGGSDIQMTQSPSSLSASVGDRVTITCRASQDINKFLSWYQQKPGKAPKLLIHYTSSLQPGVPSRFSGSGSGTDFTLTISSLQPEDFATYYCLQYDNLYTFGQGTKLEIKEPKSSDKTHTCPPCPAPPAAAPSVFLFPPKPKDTLMISRTPEVTCVVVDVSHEDPEVKFNWYVDGVEVHNAKTKPREEQYNSTYRVVSVLTVLHQDWLNGKEYKCAVSNKALPAPIEKTISKAKGQPREPQVYTLPPSRDELTKNQVSLWCLVKGFYPSDIAVEWESNGQPENNYKTTPPVLDSDGSFFLYSKLTVDKSRWQQGNVFSCSVMHEALHNHYTQKSLSLSPG
CD40_2H7 x Fc-Hole: B2 CD40_2H7 x Fc-Knob with W394S, L396A, Y435V, H463R, Y464F

binding result: binds
B4: CD4001069 (bispecific antibody)
PDL_5F9 x Fc-Knob: B3 PDL_5F9 x Fc-Knob
CD40_1D5 x Fc-Hole: DIVMSQSPSSLAVSVGEKVTMSCKSSQSLLFSVNQKNYLAWYQQKPGQSPKLLIYWASTRESGVPDRFTGSGSGTDFTLTIGSVKAEDLAVYYCQHYYSYPWTFGGGTKLEIKGGGGSGGGGSGGGGSGGGGSQVQLQQSGAELMNPGASVRISCKATGYTFSTSWIEWIKQRPGHGLEWIGEILPGSGSTNYNEKFKGKATFTADTSSNTAYMQLSSLTFEDSAVYYCARGDDGSYVRWYFDVWGAGTTVTVSSEPKSSDKTHTCPPCPAPPAAAPSVFLFPPKPKDTLMISRTPEVTCVVVDVSHEDPEVKFNWYVDGVEVHNAKTKPREEQYNSTYRVVSVLTVLHQDWLNGKEYKCAVSNKALPAPIEKTISKAKGQPREPQVYTLPPSRDELTKNQVSLSCAVKGFYPSDIAVEWESNGQPENNYKTTPPVLDSDGSFFLVSKLTVDKSRWQQGNVFSCSVMHEALHNRFTQKSLSLSPG

binding result: binds
B5: CD4001071 (bispecific antibody)
Fc-Knob x PDL_5F9: EPKSSDKTHTCPPCPAPPAAAPSVFLFPPKPKDTLMISRTPEVTCVVVDVSHEDPEVKFNWYVDGVEVHNAKTKPREEQYNSTYRVVSVLTVLHQDWLNGKEYKCAVSNKALPAPIEKTISKAKGQPREPQVYTLPPSRDELTKNQVSLWCLVKGFYPSDIAVEWESNGQPENNYKTTPPVLDSDGSFFLYSKLTVDKSRWQQGNVFSCSVMHEALHNHYTQKSLSLSPGGGGSPSEVQLVESGGGLVKPGGSLRLSCAASGFTFSDYGMAWVRQAPGKGLEWVAFITSLAYIIYYADSVKGRFTISRDNAKNSLYLQMNSLRAEDTAVYYCARNYGSSPYYFDYWGQGTLVTVSSGGGGSGGGGSGGGGSGGGGSDIQMTQSPSSLSASVGDRVTITCRASQDINKFLSWYQQKPGKAPKLLIHYTSSLQPGVPSRFSGSGSGTDFTLTISSLQPEDFATYYCLQYDNLYTFGQGTKLEIK
CD40_5B9 x Fc-Hole x PDL_5F9: DVVMTQTPLSLPVSLGDQASISCRSSQSLVHYNGYTYLHWYLQKPGQSPKLLIYKVSNRFSGVPDRFSGSGSGTDFTLKISRVEAEDLGVYFCSQTTHVPLTFGAGTKLELRGGGGSGGGGSGGGGSGGGGSEVMLVESGGGLVKPGGSLKLSCAASGFTFSSYAMSWVRQTPERRLEWVASISSAGTYIYYPDSVKGRFTISRDNAKNILYLQMNSLRSEDTAMYYCARHGNGYDPLWYFDVWGAGTTVTVSSEPKSSDKTHTCPPCPAPPAAAPSVFLFPPKPKDTLMISRTPEVTCVVVDVSHEDPEVKFNWYVDGVEVHNAKTKPREEQYNSTYRVVSVLTVLHQDWLNGKEYKCAVSNKALPAPIEKTISKAKGQPREPQVYTLPPSRDELTKNQVSLSCAVKGFYPSDIAVEWESNGQPENNYKTTPPVLDSDGSFFLVSKLTVDKSRWQQGNVFSCSVMHEALHNRFTQKSLSLSPGGGGSPSEVQLVESGGGLVKPGGSLRLSCAASGFTFSDYGMAWVRQAPGKGLEWVAFITSLAYIIYYADSVKGRFTISRDNAKNSLYLQMNSLRAEDTAVYYCARNYGSSPYYFDYWGQGTLVTVSSGGGGSGGGGSGGGGSGGGGSDIQMTQSPSSLSASVGDRVTITCRASQDINKFLSWYQQKPGKAPKLLIHYTSSLQPGVPSRFSGSGSGTDFTLTISSLQPEDFATYYCLQYDNLYTFGQGTKLEIK

binding result: binds
B6: CD4001049 (bispecific antibody)
scFv-Fc-scFv chain: DIVMSQSPSSLAVSVGEKVTMSCKSSQSLLFSVNQKNYLAWYQQKPGQSPKLLIYWASTRESGVPDRFTGSGSGTDFTLTIGSVKAEDLAVYYCQHYYSYPWTFGGGTKLEIKGGGGSGGGGSGGGGSGGGGSQVQLQQSGAELMNPGASVRISCKATGYTFSTSWIEWIKQRPGHGLEWIGEILPGSGSTNYNEKFKGKATFTADTSSNTAYMQLSSLTFEDSAVYYCARGDDGSYVRWYFDVWGAGTTVTVSSEPKSSDKTHTCPPCPAPPAAAPSVFLFPPKPKDTLMISRTPEVTCVVVDVSHEDPEVKFNWYVDGVEVHNAKTKPREEQYNSTYRVVSVLTVLHQDWLNGKEYKCAVSNKALPAPIEKTISKAKGQPREPQVYTLPPSRDELTKNQVSLTCLVKGFYPSDIAVEWESNGQPENNYKTTPPVLDSDGSFFLYSKLTVDKSRWQQGNVFSCSVMHEALHNHYTQKSLSLSPGGGGSPSEVQLVESGGGLVKPGGSLRLSCAASGFTFSDYGMAWVRQAPGKGLEWVAFITSLAYIIYYADSVKGRFTISRDNAKNSLYLQMNSLRAEDTAVYYCARNYGSSPYYFDYWGQGTLVTVSSGGGGSGGGGSGGGGSGGGGSDIQMTQSPSSLSASVGDRVTITCRASQDINKFLSWYQQKPGKAPKLLIHYTSSLQPGVPSRFSGSGSGTDFTLTISSLQPEDFATYYCLQYDNLYTFGQGTKLEIK
notes: also called CD40_1D5 x hFc x PDL_5F9

binding result: binds
B7: CD4001064 (PDL_5F9 x hFc x CD40_2H7) (bispecific antibody)
chain: EVQLVESGGGLVKPGGSLRLSCAASGFTFSDYGMAWVRQAPGKGLEWVAFITSLAYIIYYADSVKGRFTISRDNAKNSLYLQMNSLRAEDTAVYYCARNYGSSPYYFDYWGQGTLVTVSSGGGGSGGGGSGGGGSGGGGSDIQMTQSPSSLSASVGDRVTITCRASQDINKFLSWYQQKPGKAPKLLIHYTSSLQPGVPSRFSGSGSGTDFTLTISSLQPEDFATYYCLQYDNLYTFGQGTKLEIKEPKSSDKTHTCPPCPAPPAAAPSVFLFPPKPKDTLMISRTPEVTCVVVDVSHEDPEVKFNWYVDGVEVHNAKTKPREEQYNSTYRVVSVLTVLHQDWLNGKEYKCAVSNKALPAPIEKTISKAKGQPREPQVYTLPPSRDELTKNQVSLTCLVKGFYPSDIAVEWESNGQPENNYKTTPPVLDSDGSFFLYSKLTVDKSRWQQGNVFSCSVMHEALHNHYTQKSLSLSPGGGGSPSDIVMTQSHKFMSTSVGDRVSITCKASQDVNTAVAWYQQKPGQSPKLLIYSASYRYTGVPDRFTGSGSGTDFTFTISSVQAEDLAVYYCQQHYSTPWTFGGGTKLEIKGGGGSGGGGSGGGGSGGGGSQVQLQQSGAELAKPGASVKMSCKASGYAFTTYWMHWVKQRPGQGLEWIGYINPTTGYTDYNQKFKDKATLTADKSSSTAYMQLSSLTSEDSAVYYCARWGLPPFAYWGQGTLVTVSA
notes: ADAPTIR format, anti-PD-L1 scFv on N-terminus, anti-CD40 scFv on C-terminus; also called CD4001064 (2H7)
